# Reference: US20200222503A1
# What was measured:
# [1] = target: OX40-His (Example 11) (Mus musculus (Mouse)) (UniProt P47741); assay: SPR, BioRad ProteOn XPR 360, His-tagged target on chip
# mPD-L1-His (murine) = mPD-L1-His (murine) (UniProt Q9EP73); assay: as above
# [2] = target: PD-L2-His (Example 11) (Mus musculus (Mouse)) (UniProt Q9WUL5); assay: as above
# FcRn = assay: SPR
# FcγR1A = assay: SPR
# [3] = target: FcRn-His (Example 11) (Mus musculus (Mouse)) (UniProt Q61559); assay: SPR, BioRad ProteOn XPR 360, His-tagged target on chip
# Sequence of FcRn-His (Example 11) (Mus musculus (Mouse)) (Q61559 22-297 limits assumed, form in doubt, chain 1 of 2): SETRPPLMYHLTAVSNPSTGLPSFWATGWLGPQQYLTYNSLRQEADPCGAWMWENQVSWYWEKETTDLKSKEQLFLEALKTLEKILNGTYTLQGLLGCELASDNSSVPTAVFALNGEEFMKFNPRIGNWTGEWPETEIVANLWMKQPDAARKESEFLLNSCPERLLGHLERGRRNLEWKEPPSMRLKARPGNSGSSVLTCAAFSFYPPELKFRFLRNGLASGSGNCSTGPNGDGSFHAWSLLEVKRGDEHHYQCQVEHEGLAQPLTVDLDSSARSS
# Sequence of FcRn-His (Example 11) (Mus musculus (Mouse)) (beta, as listed by the source limits assumed, form in doubt, chain 2 of 2): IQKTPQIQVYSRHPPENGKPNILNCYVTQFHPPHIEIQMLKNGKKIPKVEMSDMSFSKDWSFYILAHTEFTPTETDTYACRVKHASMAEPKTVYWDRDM
# Sequence of OX40L-Fc (recombinant control protein, Example 11) (Fc fusion) (P43488 51-198): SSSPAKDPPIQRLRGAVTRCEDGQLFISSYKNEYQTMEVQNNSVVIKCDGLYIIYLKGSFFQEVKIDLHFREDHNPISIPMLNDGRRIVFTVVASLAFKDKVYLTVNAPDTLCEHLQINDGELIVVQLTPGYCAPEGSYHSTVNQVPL
# Sequence of PD-L2-His (Example 11) (Mus musculus (Mouse)) (Q9WUL5 20-221 limits assumed, form in doubt): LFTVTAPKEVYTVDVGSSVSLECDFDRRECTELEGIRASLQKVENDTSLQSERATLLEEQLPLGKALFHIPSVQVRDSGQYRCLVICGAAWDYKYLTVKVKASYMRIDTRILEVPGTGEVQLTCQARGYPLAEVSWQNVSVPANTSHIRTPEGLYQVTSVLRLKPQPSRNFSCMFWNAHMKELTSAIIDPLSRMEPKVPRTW
# Sequence of mPD-L1-His (murine) (Q9EP73 19-238 limits assumed): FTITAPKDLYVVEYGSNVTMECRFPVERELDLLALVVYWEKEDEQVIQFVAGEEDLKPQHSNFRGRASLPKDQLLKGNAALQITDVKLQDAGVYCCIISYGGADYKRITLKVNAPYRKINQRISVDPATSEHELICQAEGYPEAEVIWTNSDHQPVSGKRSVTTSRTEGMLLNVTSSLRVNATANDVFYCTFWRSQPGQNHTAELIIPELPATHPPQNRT
# Sequence of OX40-His (Example 11) (Mus musculus (Mouse)) (P47741 20-211 limits assumed, form in doubt): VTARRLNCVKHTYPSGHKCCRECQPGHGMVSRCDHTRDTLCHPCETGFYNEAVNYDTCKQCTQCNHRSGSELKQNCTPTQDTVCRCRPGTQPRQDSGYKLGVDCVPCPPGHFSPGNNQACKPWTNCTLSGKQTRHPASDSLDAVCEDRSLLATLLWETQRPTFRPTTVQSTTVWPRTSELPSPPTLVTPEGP
# Sequence of PD1-Fc (recombinant control protein, Example 11) (Fc fusion) (Q02242 25-169): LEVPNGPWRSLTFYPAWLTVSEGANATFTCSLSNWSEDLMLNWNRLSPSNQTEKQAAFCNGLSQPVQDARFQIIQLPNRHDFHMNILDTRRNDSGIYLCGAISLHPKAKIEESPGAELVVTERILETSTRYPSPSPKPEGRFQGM
substance,measurement,setting,value
"OX40L-Fc (recombinant control protein, Example 11) (Fc fusion)",Kd,[1],1.06 nM
same,koff,[1],0.000712 s⁻¹
same,kon,[1],674000 M⁻¹ s⁻¹
"PD1-Fc (recombinant control protein, Example 11) (Fc fusion)",Kd,mPD-L1-His (murine),33.3 nM
same,koff,mPD-L1-His (murine),0.00108 s⁻¹
same,kon,mPD-L1-His (murine),32400 M⁻¹ s⁻¹
same,Kd,[2],23.1 nM
same,koff,[2],0.00171 s⁻¹
same,kon,[2],47900 M⁻¹ s⁻¹
IgG1,Kd,FcRn,4.87 nM
same,Kd,FcγR1A,17.7 nM
"IgG2A (control protein, Example 11) (antibody)",Kd,[3],8.08 nM
same,koff,[3],0.0242 s⁻¹
same,kon,[3],3e+06 M⁻¹ s⁻¹
